According to US20100322941A1 (published 2010):

Legend:
recombinant human IP-10 [1] = target: T1, recombinant human IP-10 (human, UniProt P02778 22-98); assay: cell-based or functional assay
T1 construct: mature; also called hIP-10; rhIP-10
T1 sequence (looked up): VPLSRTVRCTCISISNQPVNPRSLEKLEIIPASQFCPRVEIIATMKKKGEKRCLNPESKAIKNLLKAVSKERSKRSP

recombinant human IP-10 [2] = target: T1, recombinant human IP-10; assay: SPR (Biacore 2000); the text's value differs from Table 8 (9.2 × 10^-9 M)
Method: 200RU (response unit) of a goat anti-human polyclonal IgG (ahIgG; Biacore AB, Uppsala, Sweden) were immobilized by EDC/NHS chemistry on a C1 Biacore chip. […] The surface was regenerated after each cycle by injection of 10 mM glycine pH=1.5 at 30 μL/min, for 30 s followed by 1 min. of stabilization time in HBS-EP buffer.
Binding was measured by passing either hIP-10 (Peprotech, Rocky Hill N.J.) or a NusA-hIP-10 fusion protein at the following concentrations: 34.7 nM, 11.6 nM, 3.85 nM, 1.28 nM, 0.428 nM, 0.142 nM and OnM. All solutions were diluted in HBS-EP buffer (Biacore AB, Uppsala, Sweden). Injection was performed at 50 μl/min for 3 min. followed by 12 min. of dissociation time and the temperature was set at 25° C. […] Very similar values were obtained using rhIP-10 or the NusA-hIP-10 fusion, but better response signals were obtained with the fusion protein due to its larger size that induces a better response on the Biacore.

B1: CC21R3P1_F1 (scFv format) (scFv, part only; not given: linker, domain order, vector tags, V domains shown, not shown: another chain or arm of the molecule; small tags and cut ends)
VH: QVQLVESGGGVVQPGRSHTLSCAASGFAFKNSGIHWVRQAPGKGLEWVAVISYDGSNKFYADSVKGRFTISRDNSQNTVYLQMTDLRPDDTAVYYCARDGSESEYLDYWGKGTLVTVSS
VL: NFMLTQPHSVSESPGKTVTISCTGSGGSIDRNYVQWYQQRPGSAPITVIYEDNQRPSGVPDRFSGSIDSSSNSASLTISGLRTDDEADYYCQSYDSINLWVFGGGTKVTVL
**Q.** For B1, which Calcium flux IC50 (nM); hCXCR3-expressing L1.2 cells, 10 nM hIP-10 (recombinant human IP-10 [1]) is on record?
**A.** 36 nM

**Q.** What about the Chemotaxis IC50 (nM); hCXCR3-expressing L1.2 cells, 2 nM hIP-10 (recombinant human IP-10 [1]) of the same binder?
**A.** 18 nM

B2: CC21R3P1_F1 (IgG1 format) (antibody, V domains shown)
VH: B1 VH
VL: B1 VL
**Q.** How did the Kd (recombinant human IP-10 [2]) turn out when B2 was run?
**A.** 90.2 nM

B3: CF1A11R3P3_F3 (scFv format) (scFv, part only; not given: linker, domain order, vector tags, V domains shown, not shown: another chain or arm of the molecule; small tags and cut ends)
VH: QVQLVESGGGVVQPGRSLRLSCAASGFTFSNSGIHWVRQAPGKGLEWVAVISYDGSNKFYADSVKGRFTISRDNSKNTLYLQMNSLRAEDTAVYYCAKLRDNGEYLDYWGQGTLVTVSS
VL: B1 VL
**Q.** Which results are given for B3?
**A.** Calcium flux IC50 (nM); hCXCR3-expressing L1.2 cells, 10 nM hIP-10 (recombinant human IP-10 [1]): 14 nM; Chemotaxis IC50 (nM); hCXCR3-expressing L1.2 cells, 1 nM hIP-10 (recombinant human IP-10 [1]): 1.8 nM

B4: CC21R3P5_C5 (scFv format) (scFv, part only; not given: linker and tags, part only)
scFv, part: QVQLVQSGGGVVQPGRSLRLSCAASGFTFSTYGMHWVRQAPGKGLEWVAVISYDGGTKYYADSVKGRFTISRDNSMKTLYLQMNSLRTEDTAVYYCAKDLGDLPPGLDYWGRGTMVTVSSCHEMICALLYSYNTHESIZEDSYELTQPPSVSVALGQTATITCGGSSIESKSVHWYQEKPGQAPVLVIYKDSNRPSVIPERFSGSNSGNTATLTIGRAQAGDEADYYCQVWDSSTGVVFGGGTKLTVL
**Q.** What does the source list for B4?
**A.** Calcium flux IC50 (nM); hCXCR3-expressing L1.2 cells, 10 nM hIP-10 (recombinant human IP-10 [1]): 89 nM; Chemotaxis IC50 (nM); hCXCR3-expressing L1.2 cells, 1 nM hIP-10 (recombinant human IP-10 [1]): 90 nM
